This passage reports mass deposited for bound trastuzumab results from article PMC7353425.

The target in this test is 3 × LPG (truncated derivative of linker-protein G with three linker sequence repeats) (Streptococcus strain G148). Kind of test: QCM-D; 3 × LPG (3.27–654 nM) adsorbed on SiO2-coated sensor, free sites blocked with 1 mg/mL BSA, trastuzumab injected at 1 µg/mL; 1 × PBS pH 7.4, 22 °C, flow 150 µL/min; mass from the Voigt viscoelastic model.

The substance “trastuzumab (humanized anti-HER2 monoclonal antibody)” showed a mass deposited for bound trastuzumab of 1020 ng/cm^2.
